The text below walks through data of patent US20160229919A1 (US Dept. of Health and Human Services, published 2016).

The target in experiment [1] is human transferrin receptor (human) (UniProt P02786). The experiment can be described thus: flow cytometry on YOU cells. (A flow cytometer gives signals particle by particle.)
Experiment [2] has the same target. As to the kind of experiment: flow cytometry on NCI-H322M cells.
Experiment [3] has the same target. The experiment can be described thus: flow cytometry on L55 cells.
For experiment [4] the target is unchanged. As to the kind of experiment: flow cytometry on EKVX cells.
The target is the same in experiment [5]. The experiment can be described thus: cell-based or functional assay.
Experiment [6] has as its target cell-surface mesothelin on mesothelin-expressing cells (human) (UniProt Q13421). The experiment can be described thus: flow cytometry on YOU cells.
For experiment [7] the target is unchanged. As to the kind of experiment: flow cytometry on Mz-Cha-1 cells.
Experiment [8] has the same target. As to the kind of experiment: flow cytometry on KMBC cells.
Experiment [9] has the same target. The experiment can be described thus: flow cytometry on H9 cells.
The target is the same in experiment [10]. The experiment can be described thus: flow cytometry on M30 cells.
Experiment [11] shares this target. The experiment can be described thus: flow cytometry on H9 cells. This is another data set of the same source.
For experiment [12] the target is unchanged. As to the kind of experiment: flow cytometry on NCI-H322M cells.
Experiment [13] shares this target. The experiment can be described thus: flow cytometry on NCI-H226 cells.
The target is the same in experiment [14]. The experiment can be described thus: flow cytometry on NCI-ADR-RES cells.
Experiment [15] shares this target. The experiment can be described thus: flow cytometry on L55 cells.
Experiment [16] shares this target. The experiment can be described thus: flow cytometry on KMCH cells.
Experiment [17] shares this target. The experiment can be described thus: flow cytometry on EKVX cells.
The target is the same in experiment [18]. The experiment can be described thus: flow cytometry on OVCAR8 cells.
The target is the same in experiment [19]. As to the kind of experiment: cell-based or functional assay.
The target of experiment [20] is mesothelin Region I fragment (residues 296-390) (human, UniProt Q13421 296-390). The experiment can be described thus: ELISA on mesothelin fragments. (In an ELISA, binding on a coated surface is turned into a signal by an enzyme label.)
Chain of mesothelin Region I fragment (residues 296-390) (Q13421 296-390): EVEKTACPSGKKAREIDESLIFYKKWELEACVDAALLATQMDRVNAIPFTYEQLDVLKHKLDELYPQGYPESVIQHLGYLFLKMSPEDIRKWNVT
Experiment [21] concerns the target recombinant mesothelin protein (full-length mesothelin) (human) (UniProt Q13421). As to the kind of experiment: ELISA, mAb titrated on mesothelin (1 ug/ml), fit with Prism.
Experiment [22] addresses mesothelin-Fc fusion protein (human) (UniProt Q13421). As to the kind of experiment: sandwich ELISA: YP223 capture, mesothelin-Fc titrated, biotinylated YP218 detection.

Chain of human transferrin receptor (human) (P02786 whole entry): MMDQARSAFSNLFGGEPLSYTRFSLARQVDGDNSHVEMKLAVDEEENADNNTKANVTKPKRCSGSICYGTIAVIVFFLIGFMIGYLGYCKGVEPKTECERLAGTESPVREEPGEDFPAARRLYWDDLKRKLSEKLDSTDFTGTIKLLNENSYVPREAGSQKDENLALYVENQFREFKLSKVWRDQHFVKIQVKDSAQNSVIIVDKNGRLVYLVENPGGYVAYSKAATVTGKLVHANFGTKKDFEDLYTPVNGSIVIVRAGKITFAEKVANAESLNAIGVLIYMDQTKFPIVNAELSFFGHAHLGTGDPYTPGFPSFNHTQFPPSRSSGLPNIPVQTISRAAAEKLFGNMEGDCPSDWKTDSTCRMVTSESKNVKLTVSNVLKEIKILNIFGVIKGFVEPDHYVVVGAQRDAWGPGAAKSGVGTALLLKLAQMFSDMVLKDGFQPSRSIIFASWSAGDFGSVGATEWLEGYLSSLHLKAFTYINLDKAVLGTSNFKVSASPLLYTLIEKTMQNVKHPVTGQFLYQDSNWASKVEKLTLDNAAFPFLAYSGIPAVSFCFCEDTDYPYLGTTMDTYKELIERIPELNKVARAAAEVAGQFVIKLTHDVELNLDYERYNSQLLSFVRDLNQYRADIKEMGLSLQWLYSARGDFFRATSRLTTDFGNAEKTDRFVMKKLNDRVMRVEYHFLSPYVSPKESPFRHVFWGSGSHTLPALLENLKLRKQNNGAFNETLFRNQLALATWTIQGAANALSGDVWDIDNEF

As for HB21-PE40 immunotoxin, in [1], the dissociation constant (Kd) came to 24.7 nM. For the same molecule, the Kd in experiment [2] is 6.05 nM. For the same molecule, the Kd in [3] was 9.74 nM. For the same molecule, the Kd in experiment [4] was determined as 6.28 nM. In experiment [5], this molecule yielded an IC50 (ng ml^-1), cytotoxicity on EKVX cells of 0.21 ng/mL; an IC50 (ng ml^-1), cytotoxicity on H226-GL cells of 0.22 ng/mL; an IC50 (ng ml^-1), cytotoxicity on L55 cells of 0.57 ng/mL; an IC50 (ng ml^-1), cytotoxicity on M30 cells of 0.51 ng/mL. Further, in experiment [5], the IC50 (ng ml^-1), cytotoxicity on NCI-ADR-RES cells came to 0.12 ng/mL and the IC50 (ng ml^-1), cytotoxicity on NCI-H322M cells stood at 0.31 ng/mL.

SS1P immunotoxin yielded a Kd in experiment [6] of 1.48 nM. Besides, the dissociation constant (Kd) in experiment [7] came out at 1.3 nM. Also, the Kd in experiment [8] turned out to be 2.15 nM. The molecule also came in with a Kd in [9] of 1.3 nM. The Kd in experiment [10] stood at 0.49 nM. In [11], this molecule yielded a Kd of 4.82 nM. This molecule came in with a dissociation constant (Kd) in experiment [12] of 0.44 nM. The molecule also returned a Kd in experiment [13] of 1.49 nM. In addition, the Kd in [14] came to 1.41 nM. In experiment [15], this molecule came in with a dissociation constant Kd of 1.04 nM. The same molecule displayed a Kd in experiment [16] of 1.26 nM. Besides, in experiment [17], the Kd came out at 1.7 nM. In experiment [18], the Kd came out at 0.6 nM. In experiment [19], this molecule came in with an IC50 (ng ml^-1), cytotoxicity on EKVX cells of 55.4 ng/mL; an IC50 (ng ml^-1), cytotoxicity on H9 cells of 0.076 ng/mL; an IC50 (ng ml^-1), cytotoxicity on H226-GL cells of 1.99 ng/mL; an IC50 (ng ml^-1), cytotoxicity on KMBC cells of 3.39 ng/mL. Further, in [19], the IC50 (ng ml^-1), cytotoxicity on KMCH cells is 7.23 ng/mL; the IC50 (ng ml^-1), cytotoxicity on L55 cells worked out at 5.89 ng/mL; the IC50 (ng ml^-1), cytotoxicity on M30 cells is 7.13 ng/mL; the IC50 (ng ml^-1), cytotoxicity on Mz-Cha-1 cells was 21.6 ng/mL. In experiment [19], this molecule showed an IC50 (ng ml^-1), cytotoxicity on NCI-ADR-RES cells of 1.2 ng/mL; an IC50 (ng ml^-1), cytotoxicity on NCI-H226 cells of 5.29 ng/mL; an IC50 (ng ml^-1), cytotoxicity on NCI-H322M cells of 4.02 ng/mL; an IC50 (ng ml^-1), cytotoxicity on OVCAR8 cells of 1.82 ng/mL. For the same molecule, in experiment [19], the IC50 (ng ml^-1), cytotoxicity on YOU cells amounted to 13 ng/mL; the IC50 (ng/ml), cytotoxicity on RH16 mesothelioma patient primary cells was 10.4 ng/mL; the IC50 (ng/ml), cytotoxicity on RH18 mesothelioma patient primary cells is more than 100 ng/mL; the IC50 (ng/ml), cytotoxicity on RH19 mesothelioma patient primary cells is 0.63 ng/mL. In addition, in experiment [19], the IC50 (ng/ml), cytotoxicity on RH21 mesothelioma patient primary cells is 0.73 ng/mL.

B1: YP158 rabbit monoclonal antibody (antibody, V domains shown)
VH: QSLEESGGDLVKPGASLTLTCTASGFSFSGDYYMCWVRQAPGKGLEWIACIGGGSNTATYYATWAKGRFTISKTSSTTVTLQMTSLTAADTATYFCARDLGFVDYALELWGPGTLVTVSS
VL: DIVMTQTPASVEVAVGGTVTIKCQASENMYNSLAWYQQKPGQPPKLLIYRASTLESGVPSRFKGSGSGTEYTLTISDLECADAATYYCQCTFYSHNNNYGGAFGGGTEVVV
notes: Rabbit hybridoma mAb (rabbit IgG)
Regarding B1, the binding result in experiment [20] was “binds”.

B2: YP223 rabbit monoclonal antibody (antibody, V domains shown)
VH: QEQLEESGGDLVQPEGSLTLTCKASGLDFSSSYWICWVRQAPGKGLEWIGCRHTFTANTWSASWVNGRFTISRSTSLGTVDLKMTSLTAADTATYFCARDESNNDGWDFKLWGPGTLVTVSS
VL: AYDMTQTPASVSAAVGGTVTIKCQASQSISNYLAWYQQKPGQPPKLLIYQASTLAPGVSSRFKGSGSGTEFTLTISGVECADAATYYCQQGYTSSNVENVFGGGTGVVV
With B2, the equilibrium dissociation constant (Kd) in experiment [21] is 0.65 nM. The molecule further had an EC50 in experiment [22] of 0.5 nM.

B3: YP3 rabbit monoclonal antibody (antibody, V domains shown)
VH: QEQLVESGGGLVQPGASLTLTCTASGIDFSRYYMCWVRQAPGKGLEGIACIYIGGSGSTYYASWAKGRFTISKASSTTVTLQMTSLTAADTATYFCARGTNLNYIFRLWGPGTLVTVSS
VL: DVVMTQTPSPVSAAVGGTVTIKCQASQSINNGLAWYQQKPGQPPRLLIYSASNLESGVPSRFKGSGSGTEFTLTISDLECDDAATYYCQCIWDGNSYVNAFGGGTEVVV
Turning to B3, the Kd in [21] worked out at 0.42 nM.

B4: YP218 rabbit monoclonal antibody (antibody, V domains shown)
VH: QQQLEESGGGLVKPEGSLTLTCKASGFDLGFYFYACWVRQAPGKGLEWIACIYTAGSGSTYYASWAKGRFTISKASSTTVTLQMTSLAAADTATYFCARSTANTRSTYYLNLWGPGTLVTVSS
VL: DVVMTQTPASVSEPVGGTVTIKCQASQRISSYLSWYQQKPGQRPKLLIFGASTLASGVPSRFKGSGSGTEYTLTISDLECADAATYYCQSYAYFDSNNWHAFGGGTEVVV
With B4, the dissociation constant (Kd) in experiment [21] stood at 0.91 nM.

As a reminder, the Kd is the constant that tells how readily two partners part at equilibrium. As usually defined, the EC50 is the concentration at which the effect is half-maximal. The low end stands for higher potency in that assay, the high end for lower potency in that assay.
